From patent publication US20210024639A1 (AGOMAB THERAPEUTICS, published 2021)
Residue numbers refer to the chain shown, from its start. Each block holds one binder with its values, some of them ahead of it.

How the values were obtained:
[1] = target: T1, native human MET on living human cells (human, UniProt P08581 25-1390); assay: cell-based or functional assay
[2] = target: T2, native mouse MET on living mouse cells (mouse, UniProt P16056 25-1379); assay: cell-based or functional assay
[3] = target: T1, native human MET on living human cells; assay: cell-based or functional assay; remark: listed apart in the source
[4] = target: T2, native mouse MET on living mouse cells; assay: cell-based or functional assay; remark: listed apart in the source
[5] = target: T1, native human MET on living human cells; assay: flow cytometry, A549 cells
Description: (§1) We also analysed whether chimeric anti-MET antibodies bound to native human and mouse MET in living cells. […] Antibody binding to cells was analysed by flow cytometry using phycoerythrin-conjugated anti-human IgG1 antibodies (eBioscience) and a CyAn ADP analyser (Beckman Coulter). As a positive control for human MET binding, we used a commercial mouse anti-human MET antibody (R&D Systems) and phycoerythrin-conjugated anti-mouse IgG1 antibodies (eBioscience). As a positive control for mouse MET binding we used a commercial goat anti-mouse MET antibody (R&D Systems) and phycoerythrin-conjugated anti-goat IgG1 antibodies (eBioscience). […] Consistent with the data obtained in ELISA, maximal binding (EMAX) varied depending on antibody, but was similar in human and mouse cells.

[6] = target: T2, native mouse MET on living mouse cells; assay: flow cytometry, MLP29 cells
Description: as §1

[7] = target: human MET ECD mutant A (mutations 1, 2, 3) (human) (UniProt P08581); assay: ELISA, MET ECD mutant in solid phase, mAb 0-50 nM
[8] = target: human MET ECD mutant D (mutations 1, 2) (human) (UniProt P08581); assay: ELISA, MET ECD mutant in solid phase, mAb 0-50 nM
[9] = target: human MET ECD mutant E (mutations 2, 3, 4) (human) (UniProt P08581); assay: ELISA, MET ECD mutant in solid phase, mAb 0-50 nM
[10] = target: human MET ECD mutant H (mutations 2, 4) (human) (UniProt P08581); assay: ELISA, MET ECD mutant in solid phase, mAb 0-50 nM
[11] = target: T3, human MET extracellular domain (ECD) (human, UniProt P08581 25-932); assay: ELISA, MET ECD in solid phase, mAb 0-50 nM
T3 construct: range 1-932; recombinant ECD; also called hMET; human MET ECD
Description: Using human MET as a template, we mutagenized each of these residues in different permutations, generating a series of MET mutants that are fully human except for specific residues, which are llama. Next, we tested the affinity of selected SEMA-binding mAbs (71D6, 71C3, 71D4, 71A3, 71G2) and PSI-binding mAbs (76H10 and 71G3) for these MET mutants by ELISA. To this end, the various MET proteins were immobilized in solid phase (100 ng/well in a 96-well plate) and then exposed to increasing concentrations of antibodies (0-50 nM) solution. […] Wild-type human MET was used as positive control.
TABLE 18 The epitopes of MET responsible for agonistic antibody binding represent residues conserved among H. sapiens, M. musculus, R. norvegicus, M. fascicularis but not among the same species and L. glama. The relevance of residues conserved among human, mouse, rat, cynomolgus monkey but not llama MET for binding to agonistic mAbs was tested by ELISA. Wild-type (WT) or mutant (MT) human MET ECD was immobilized in solid phase and exposed to increasing concentrations of mAbs in solution. […] All binding values were normalized to the WT protein and are expressed as % binding (EMAX) compared to WT MET.

[12] = target: T4, human MET-Fc chimeric protein (R&D Systems) (human, UniProt P08581 25-932); assay: competition ELISA, hMET-Fc in solid phase, competitor 0.3 nM biotinylated hHGF
T4 construct: extracellular domain; bought (R&D Systems); also called hMET; not shown: Fc portion of human IgG1
Description: (§2) To investigate along this line, we tested the competition between mAbs and HGF by ELISA. Recombinant human and mouse HGF (R&D Systems) were biotinylated at the N-terminus using NHS-LC-biotin (Thermo Scientific). MET-Fc protein, either human or mouse (R&D Systems), was immobilized in solid phase and then exposed to 0.3 nM biotinylated HGF, either human or mouse, in the presence of increasing concentrations of antibodies (0-120 nM).
(§3) A MET-Fc chimeric protein (either human or mouse) was immobilized in solid phase and exposed to a fixed concentration of biotinylated HGF (either human or mouse), in the presence of increasing concentrations of antibodies. […] Antibody-HGF competition is expressed as IC₅₀ (the concentration that achieves 50% competition) and IMAX (the maximum % competition reached at saturation).

[13] = target: T5, mouse MET-Fc chimeric protein (R&D Systems) (mouse, UniProt P16056 25-929, limits assumed); assay: competition ELISA, mMET-Fc in solid phase, competitor 0.3 nM biotinylated mHGF
T5 construct: bought (R&D Systems); also called mMET; not shown: Fc
Description: as §2, §3

cell scattering score, HPAF-II, 0.001 nM [1]: 0 score 0-4 | cell scattering score, HPAF-II, 0.004 nM [1]: 1 score 0-4 | cell scattering score, HPAF-II, 0.012 nM [1]: 2 score 0-4 | cell scattering score, HPAF-II, 0.037 nM [1]: 3 score 0-4 | cell scattering score, HPAF-II, 0.111 nM [1]: 4 score 0-4 | cell scattering score, HPAF-II, 0.333 nM [1]: 4 score 0-4 | cell scattering score, HPAF-II, 1.000 nM [1]: 4 score 0-4 | cell scattering score, HPAF-II, 3.000 nM [1]: 4 score 0-4 | cell scattering score, HPAF-II, 9.000 nM [1]: 4 score 0-4 | cell scattering score, MLP29, 0.001 nM [2]: 0 score 0-4 | cell scattering score, MLP29, 0.004 nM [2]: 1 score 0-4 | cell scattering score, MLP29, 0.012 nM [2]: 2 score 0-4 | cell scattering score, MLP29, 0.037 nM [2]: 3 score 0-4 | cell scattering score, MLP29, 0.111 nM [2]: 4 score 0-4 | cell scattering score, MLP29, 0.333 nM [2]: 4 score 0-4 | cell scattering score, MLP29, 1.000 nM [2]: 4 score 0-4 | cell scattering score, MLP29, 3.000 nM [2]: 4 score 0-4 | cell scattering score, MLP29, 9.000 nM [2]: 4 score 0-4 | EMAX (% relative to control) [5]: 113% | EMAX (% relative to control) [6]: 121% | % binding (EMAX) compared to WT MET [7]: 103% | % binding (EMAX) compared to WT MET [8]: 128% | % binding (EMAX) compared to WT MET [9]: 43.6% | % binding (EMAX) compared to WT MET [10]: 38.6% | % binding (EMAX) compared to WT MET [11]: 100% | IMAX (maximum % competition) [12]: 98.3% | IMAX (maximum % competition) [13]: 90.5%
B1: chimeric llama-human IgG1 mAb 71D6 (antibody, V domains shown)
VH: ELQLVESGGGLVQPGGSLRLSCAASGFTFSSYGMSWVRQAPGKGLEWVSAINSYGGSTSYADSVKGRFTISRDNAKNTLYLQMNSLKPEDTAVYYCAKEVRADLSRYNDYESYDYWGQGTQVTVSS
VL: QPVLNQPSALSVTLGQTAKITCQGGSLGARYAHWYQQKPGQAPVLVIYDDDSRPSGIPERFSGSSSGGTATLTISGAQAEDEGDYYCQSADSSGSVFGGGTHLTVL
protection from staurosporine, viability EC50, MCF10A [3]: 1.48 nM | protection from staurosporine, viability EMAX, MCF10A [3]: 66.8% | protection from staurosporine, viability EC50, MLP29 [4]: 0.95 nM | protection from staurosporine, viability EMAX, MLP29 [4]: 68.3%

cell scattering score, HPAF-II, 0.001 nM [1]: 0 score 0-4 | cell scattering score, HPAF-II, 0.004 nM [1]: 0 score 0-4 | cell scattering score, HPAF-II, 0.012 nM [1]: 0 score 0-4 | cell scattering score, HPAF-II, 0.037 nM [1]: 0 score 0-4 | cell scattering score, HPAF-II, 0.111 nM [1]: 1 score 0-4 | cell scattering score, HPAF-II, 0.333 nM [1]: 2 score 0-4 | cell scattering score, HPAF-II, 1.000 nM [1]: 3 score 0-4 | cell scattering score, HPAF-II, 3.000 nM [1]: 4 score 0-4 | cell scattering score, HPAF-II, 9.000 nM [1]: 4 score 0-4 | cell scattering score, MLP29, 0.001 nM [2]: 0 score 0-4 | cell scattering score, MLP29, 0.004 nM [2]: 0 score 0-4 | cell scattering score, MLP29, 0.012 nM [2]: 0 score 0-4 | cell scattering score, MLP29, 0.037 nM [2]: 0 score 0-4 | cell scattering score, MLP29, 0.111 nM [2]: 1 score 0-4 | cell scattering score, MLP29, 0.333 nM [2]: 2 score 0-4 | cell scattering score, MLP29, 1.000 nM [2]: 3 score 0-4 | cell scattering score, MLP29, 3.000 nM [2]: 4 score 0-4 | cell scattering score, MLP29, 9.000 nM [2]: 4 score 0-4 | EMAX (% relative to control) [5]: 106% | EMAX (% relative to control) [6]: 115% | % binding (EMAX) compared to WT MET [7]: 99.8% | % binding (EMAX) compared to WT MET [8]: 102% | % binding (EMAX) compared to WT MET [9]: 59.6% | % binding (EMAX) compared to WT MET [10]: 61.6% | % binding (EMAX) compared to WT MET [11]: 100% | IMAX (maximum % competition) [12]: 93.6% | IMAX (maximum % competition) [13]: 89.2%
B2: chimeric llama-human IgG1 mAb 71C3 (antibody, V domains shown)
VH: B1 VH with E1Q, Y32H, G33A, Y54G, V100L, A102F, S105A, N108T, S112A, Y113W
VL: SYELTQPSALSVTLGQTAKITCQGGSLGSSYAHWYQQKPGQAPVLVIYDDDSRPSGIPERFSGSSSGGTATLTISGAQAEDEGDYYCQSADSSGNAAVFGGGTHLTVL
protection from staurosporine, viability EC50, MCF10A [3]: 31.9 nM | protection from staurosporine, viability EMAX, MCF10A [3]: 50.2% | protection from staurosporine, viability EC50, MLP29 [4]: 31 nM | protection from staurosporine, viability EMAX, MLP29 [4]: 51.3%
